Assay results published in IntAct's records for PubMed 27725184.

B1: STAM-binding protein (Homo sapiens), O95630 (parent)
chain: MSDHGDVSLPPEDRVRALSQLGSAVEVNEDIPPRRYFRSGVEIIRMASIYSEEGNIEHAFILYNKYITLFIEKLPKHRDYKSAVIPEKKDTVKKLKEIAFPKAEELKAELLKRYTKEYTEYNEEKKKEAEELARNMAIQQELEKEKQRVAQQKQQQLEQEQFHAFEEMIRNQELEKERLKIVQEFGKVDPGLGGPLVPDLEKPSLDVFPTLTVSSIQPSDCHTTVRPAKPPVVDRSLKPGALSNSESIPTIDGLRHVVVPGRLCPQFLQLASANTARGVETCGILCGKLMRNEFTITHVLIPKQSAGSDYCNTENEEELFLIQDQQGLITLGWIHTHPTQTAFLSSVDLHTHCSYQMMLPESVAIVCSPKFQETGFFKLTDHGLEEISSCRQKGFHPHSKDPPLFCSCSHVTVVDRAVTITDLR

Variants of: B1
Conditions: with stam2_human STAM2, O75886

effect of a mutation on the interaction	Variant
with no effect	K229H
decreasing interaction	K238T
